Consider 14 molecules from patent US20230174598A1 (UNIVERSITY OF FLORIDA RESEARCH FOUNDATION, published 2023).

Substitutions are numbered along the chain they refer to. Names and notes keep the numbering of the source.

This assay deals with bovine enolase-1 (bovine, UniProt Q9XSJ4 1-434, AlexaFluor-546 maleimide on reactive cysteines (pulldown assay only; unlabeled in the quench and activity assays)). The experiment in a line: KI quench protection of mBBr-labeled arrestin-1; 0.25 µM arrestin-1, 5 µM (20-fold) enolase-1. The method, then: C. Quenching assay. Cysteine mutants of arrestin-1 were labeled with monobromobimane (mBBr, ThermoFisher), reacting the arrestin-1 protein with 100-fold molar excess of the fluorescent label for two hours at room temperature. The unreacted label was removed by dialyzing against three sequential changes of 500-volumes of LAP200 buffer. […] Fluorescence quenching of the mBBr fluorophore was performed using 0.25 μM mBBr-labeled arrestin-1 with 100 mM potassium iodide in the presence or absence of 5 μM bovine enolase-1 that had been heterologously expressed and purified as previously described for arrestin-1, monitoring fluorescence emission at 470 nm. To determine the degree to which enolase-1 shielded a residue from quenching by potassium iodide, a protection factor was calculated as follows: […]
C. Mapping interaction of arrestin-1 with enolase-1. […] The fluorescence emission of the mBBr-labeled arrestin-1 with and without potassium iodide was measured to determine the range of quenching by KI. The fluorescence emission quench by KI with and without enolase-1 was then measured. A quench protection factor was calculated as described in the experimental procedures (Table 2). […] When mapped onto the surface of the arrestin-1 structure, these residues largely mapped to a single surface along the “bottom” of the arrestin protein (FIG. 2B).

bovine enolase-1, sequence (Q9XSJ4 whole entry): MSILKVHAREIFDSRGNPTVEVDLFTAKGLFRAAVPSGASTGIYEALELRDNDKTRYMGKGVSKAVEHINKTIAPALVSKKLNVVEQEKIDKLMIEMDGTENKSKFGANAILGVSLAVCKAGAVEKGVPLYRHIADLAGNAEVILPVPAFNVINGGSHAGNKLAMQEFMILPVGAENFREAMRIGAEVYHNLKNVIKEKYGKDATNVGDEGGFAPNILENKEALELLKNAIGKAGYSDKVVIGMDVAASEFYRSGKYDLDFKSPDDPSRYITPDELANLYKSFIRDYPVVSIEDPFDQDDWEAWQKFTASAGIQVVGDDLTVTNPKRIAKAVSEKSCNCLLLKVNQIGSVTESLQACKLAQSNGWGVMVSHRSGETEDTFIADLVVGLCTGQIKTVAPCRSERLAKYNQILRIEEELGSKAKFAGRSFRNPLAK

In the case of “Y125C arrestin-1 (bovine, His(6), C63A/C143A) labeled with monobromobimane (from UniProt P08168 2-404)”, the F(A+E+K) (fluorescence with enolase-1 and KI) was 14000; the Pf (quench protection factor) is 0.012.

“I72C arrestin-1 (bovine, His(6), C63A/C143A) labeled with monobromobimane (from UniProt P08168 2-404)” registered a F(A+E+K) (fluorescence with enolase-1 and KI) of 630; a Pf (quench protection factor) of 0.002.

Consider “S86C arrestin-1 (bovine, His(6), C63A/C143A) labeled with monobromobimane (from UniProt P08168 2-404)”, for which the F(A+E+K) (fluorescence with enolase-1 and KI) came to 6160; the Pf (quench protection factor) stood at 0.073.

For “R18C arrestin-1 (bovine, His(6), C63A/C143A) labeled with monobromobimane (from UniProt P08168 2-404)”, the F(A+E+K) (fluorescence with enolase-1 and KI) worked out at 963; the Pf (quench protection factor) is -0.005.

For “E393C arrestin-1 (bovine, His(6), C63A/C143A) labeled with monobromobimane (from UniProt P08168 2-404)”, the F(A+E+K) (fluorescence with enolase-1 and KI) is 953; the Pf (quench protection factor) is 0.134.

Molecule “W194C arrestin-1 (bovine, His(6), C63A/C143A) labeled with monobromobimane (from UniProt P08168 2-404)” gave a F(A+E+K) (fluorescence with enolase-1 and KI) of 14000; a Pf (quench protection factor) of 0.012.

The molecule “S199C arrestin-1 (bovine, His(6), C63A/C143A) labeled with monobromobimane (from UniProt P08168 2-404)” returned a F(A+E+K) (fluorescence with enolase-1 and KI) of 636; a Pf (quench protection factor) of -0.001.

Turning to “D317C arrestin-1 (bovine, His(6), C63A/C143A) labeled with monobromobimane (from UniProt P08168 2-404)”, the F(A+E+K) (fluorescence with enolase-1 and KI) worked out at 11500; the Pf (quench protection factor) stood at 0.002.

“S231C arrestin-1 (bovine, His(6), C63A/C143A) labeled with monobromobimane (from UniProt P08168 2-404)” returned a F(A+E+K) (fluorescence with enolase-1 and KI) of 695; a Pf (quench protection factor) of 0.002.

For the molecule “Y25C arrestin-1 (bovine, His(6), C63A/C143A) labeled with monobromobimane (from UniProt P08168 2-404)”, the F(A+E+K) (fluorescence with enolase-1 and KI) came to 600; the Pf (quench protection factor) is -0.011.

In turn, “V139C arrestin-1 (bovine, His(6), C63A/C143A) labeled with monobromobimane (from UniProt P08168 2-404)” had a F(A+E+K) (fluorescence with enolase-1 and KI) of 778; a Pf (quench protection factor) of -0.001.

In turn, “S251C arrestin-1 (bovine, His(6), C63A/C143A) labeled with monobromobimane (from UniProt P08168 2-404)” yielded a F(A+E+K) (fluorescence with enolase-1 and KI) of 730; a Pf (quench protection factor) of 0.011.

B1: A113C arrestin-1 (bovine, His(6), C63A/C143A) labeled with monobromobimane (other)
chain: MHHHHHHKANKPAPNHVIFKKISRDKSVTIYLGKRDYIDHVERVEPVDGVVLVDPELVKGKRVYVSLTAAFRYGQEDIDVMGLSFRRDLYFSQVQVFPPVGASGATTRLQESLIKKLGCNTYPFLLTFPDYLPCSVMLQPAPQDVGKSAGVDFEIKAFATHSTDVEEDKIPKKSSVRLLIRKVQHAPRDMGPQPRAEASWQFFMSDKPLRLAVSLSKEIYYHGEPIPVTVAVTNSTEKTVKKIKVLVEQVTNVVLYSSDYYIKTVAAEEAQEKVPPNSSLTKTLTLVPLLANNRERRGIALDGKIKHEDTNLASSTIIKEGIDKTVMGILVSYQIKVKLTVSGLLGELTSSEVATEVPFRLMHPQPEDPDTAKESFQDENFVFEEFARQNLKDAGEYKEEKTDQEAAMDE
modifications: monobromobimane (mBBr) on Cys 113
notes: Cysteine-substitution mutant, made in Pichia pastoris
Turning to B1, the “F(A+E+K) (fluorescence with enolase-1 and KI)” value worked out at 3460; the “Pf (quench protection factor)” value worked out at 0.109.

B2: D183C arrestin-1 (bovine, His(6), C63A/C143A) labeled with monobromobimane (other)
chain: B1 chain with C119A, D189C
modifications: monobromobimane (mBBr) on Cys 183
notes: as for B1
With B2, the “F(A+E+K) (fluorescence with enolase-1 and KI)” value came to 19200; the “Pf (quench protection factor)” value worked out at 0.787.
